The values below come from a protein production outcome set (Wang et al. 2014).

This series in a line: label from the status in PepcDB records.
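Also: failed if final PepcDB status was selected cloned or expressed and not failed if soluble or beyond.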

For the sequence “MWFQNYLLAKFMMNRKGLMANYRVWRRRWFYPLISVVVAVSLCLGTPLVGRAIDLRPLLLQGVQVLQLSNISDRQEVDLGNQMNQQLRSSEVKISRNAEITRYVDQIGQRLVANSDRPNLPFTFQVVENDAVNAFATLGGFVYIHTGLLKTADNEAELASVIAHEIGHIGGRHLVKQMRQRALASGLASATGLDRNTAVGLGVELALNRPRSRQDEFDADTRGLRTLTRAGYAPSAMVSFMQKLTKGGGSVPAFLSTHPATGDRITSLRRAINSQGSNGRDGLDNAAYRARIRSIL”, the protein production entry was “failed”.

With “MWKAVMNAWNGTESQSKNVSNIQSYSFEDMKRIVGKHDPNVVLVDVREPSEYSIVHIPASINVPYRSHPDAFALDPLEFEKQIGIPKPDSAKELIFYCASGKRGGEAQKVASSHGYSNTSLYPGSMNDWVSHGGDKLDL”, the protein production result is reported as “not failed”.

As to “MWKTASDKGLGHLLRDVWSLLNEEERELLDKEIQPFPCKKASTVFSEGDIPNNLFYLYEGKIKILREGVYGRFHISRIVKPGQFFGMRPYFAEETCSSTAIAVENSKVLAIPVEAIEALLKGNTSFCRYFLKALAKELGYAERRTVTLTQKHVRGRLAETLLILKENFGFENDGATLSIYLSREELATLSNMTVSNAIRTLSTFVSERMLALDGKRIKIIDCDRLQKTARSG”, the protein production result is “not failed”.

Take “MWLGYMNKSIPTTRKTRTFKAMSIEFSAPAKMKIEVWSDIMCPFCYIGKKRLDDALSTFDQAGRIEVEYKSFELMPGLETHPLRSDVEYLADAKGMSLEQARQMNGQVQAMAQATGLEMNPDETIAANTINAHRLTHFAKAHGKQQEVAQELFKAHFVDGKNVDDLDVLVSIAAEVGLDASAAREALESDVYTNEVQQDVHEARQLGVQGVPFFVFDRKYAINGAQQEEVFTGTVEKAFEEWAAENPVSPFEVIDGQSCSVDGTCN”: the protein production result is “not failed”.

Turning to “MWPASRCASDSSLQCGRPNDRIPMSDIAVLINTAVAVLAAVLLIVRFRVNPVISLILASVYLGLAVGLGVEKTVKTITGGFGEIMVDVGLLIAFGVLMGSILNQSGAIRRLVEHLLKTFGPKRLPYTMGLAIGTVLQSIFLDVLLVISAPLARKLAPKIGKLGTARMATAMAIALECGIVFTVPGVASLALAGLLNVPLGKMLLFGLLLVIPTIIISIAIMTFLFRRGFWNEAKDEDHTFVAEEDSEGEEPTDGGAATVPPTANSERGTAASSAQPAGGSVAVVERERKEAPLILLFAPLLTSLLLIGAGAILEILEISMPWLQLLGEPVIALLIGLIGTCLVTRAAIGQKKVEEAIAVGFKESGQILILTGVGGSLAATVAAAGLGDILGGFFSASTVAPLLVVWAIAAVLHIAVGSVTLSAITAAGLLAPIAPAIGLDPVLLALAAGAGSLFMVHVTSNTFWLLQSLLGQSVRGALKSVTVGVSVASVVAILLILPMSLLF”, the protein production result was “failed”.

With “MWRVRCKAKGGTHLLQGLSSRTRLRELQGQIAAITGIAPGSQRILVGYPPECLDLSDRDITLGDLPIQSGDMLIVEEDQTRPKASP”, the protein production entry is “not failed”.

In the case of “MWRYRSPEMPLTESFLDLMLIPIIGFGLAVILLIGFFLLYQEVGIFKNLKFLVIRKNNPFFILALFCLITGLALGLVGYWGILEPKLGAADLQALRRNLIILSLLLFGVTFRQYLFDLIKPVTTMAIWRKIGTFNYKNRIAILTYVLLGLIALAWMAPMASTKIIFSINDHTSHIGYIVQGRMALEEGQFPLRVAPLENFGFRYPGFQFYSQLPYFFGAIIYKFLTPTNPYTAYKILLWSALWLGGIFIYRVGFFFTRSQIAAILGGVTYMSAPYFLNNVHARGAFTEAIAQGILAIVLFYAIQTFYYPHYRHLILGALAWCALGLTHIITFVYTTIFIALLGAIFLVKNKPNHWQKGITYISLSYIWAWLLALYFLAPVALESGSLAIRRQIQAINPFNTTDITPIANLLAPNSLPHQPTELGIAPTYGFHPAVGWILLAGFGTVIYFVFAGKSLPRRLWRSQPWLIPLLSVFILALFLTWSPVNIWNLLPRQLWVTQFTFRFLTHVMWSGALLTTLAIILIFRERLRSRHLILGILIIVIASRPWLPIPRGTVTVEELLQDPLFRYSGALDYLYRLPNKAVPVNTKAQSAVEKIYGKAELQLLHPDWIPGYLSWDVFINGPLPIDVDIPYPAWPETEKPTLVLQGRVPMDKIKSQANLIVFVDQQPLTSIPLTQEELKVKVPFTDVKFAGNAFELKFIVEGETTDGNPLYIRMNHLYFDDFSAANTLLPVHATKEMCNQKGVVTNCPVEMPAEAGTVQLPILYYPAMQQVVVDNQPVKGFFTNYRDFNLLSLNLSPGKHQIQVKFTGLIWANFISLLAWLTLIITAIALKFYPRKPEQTIFK”, the protein production entry is reported as “failed”.

Turning to “MWTDAGGQVHEAASGDVRIASLVPSITELLFDLGLADQLVARTGFCIHPEPAVRAVAKVGGTKDVKLDRLRALAPTHVVVNIDENRRETVDEIRTFVPHVIVTHPCAPEDNLALYRLLGGIFGRRPQAEALVGQLRGELDAIQAQTWPARRVLYAIWQDPWMTVSRATYISRMLALVNWATWPDDADTSDTPAACVDGDCSRPNAPGERYPTFRWSDALVRELDAVLLSTEPYRFTEDHADALERQIGKPVLLVDGEMLSWYGSRAVAGARYLRSLAQGFLEHHHHHH”, the protein production result is on record as “not failed”.

In the case of “MWTDSREALSDLQLGECERVLDVGCGTGELTRVLREETDGTVVGLDADTDLLAAAGDPTVCGDATQLPFDDDSFDLVVCQALLINLPDPEVAVREFARVATDRVAAIEPNNAAVTVESTVDAEPMLARRARRLFLDGVRTDVTLGSDAADVFSDAELTVVSTTQYDQEQQIEPPYDDAAMQAARRKATGTGLAHDRETILNGEATPAEYDALRERWRSMGRDVVEQMQDEAYERHETVPFFVTVGEIP”, the protein production result was “failed”.

For the sequence “MWVDGMAKVVEVGRICVKTRGREAGRKCVIVDIIDENFVLVTGPKSLTGVRRRRVNIDHIEILDKKVDIQKGASDEEVLKALEEAGLADFMREPVRIARITPFTLLEHHHHHH”, the protein production entry is on record as “not failed”.

As for “MWVRVPPPAPFSIFLSPGDDIVKRRKSTRTSSFGVKGRESHDSSPFYSRAIYSNFSLPKPSEEDLIENPLPENLLDKVIEGDAREVLKKIPDCSIHLMVTSPPYNVGKEYDEDMTLDEYLEFIEEIMKEVYRVLVWGGRACFNVANLGRKPYIPLHAYLIHLFEKIGFLIRGEIIWDKGEAVSGSSTAWGSWMSPVNPVLRDQHEYIIVMSKGDLKRRKPSDREAKSTITREEFLEFTRSVWKFPPESAKRVGHPAPFPEELPYRCIQLYTFKGDVVLDPFAGVGTTCVAAVKTGRHFVGIEINPEYVKKAEERVKDILSKPTLFEDHC”, the protein production result is listed as “failed”.

Turning to “MYAIAEDTLPARVLKELLLYRRRYPEHRQSASEADEIRRIEQVQLPRIAAFIEAGEPIEFVLPAFPAKSPNPGKVLDSRPDMAERLSLSFLNHLCQRIQLFYAPGAKITVCSDGRVFGDLVRIGDAHISAYQDALRLMIEEIGATHIGVFNLEDVRAFEAQRDNHEQLRQLLIGGYAEPLESIRETLLASEEGLLLYRAITRFLYEDGLTPDYQGSKTALQRDAKERAYGVIQRSWAWGALLADQFPRAIRLSIHPQPADSLKFGIHMMPTRDDWLTPWHGVAVNTEDRFVLMKRSEVLELGGELVQINGQPSHYRLPARAARRAAVALEHHHHHH”, the protein production result is recorded as “failed”.

Turning to “MYALIHHGRRLVQLQKLSNFRVSVQNGSALSNSFSFASVADATLIDSLKGNNFTVSYLVDSLGLTTKLAESISKKVSFEERRNPDSVLSLLTSYGFTKSQISSIITIYPRLLALDAEKSIAPKLQSLQSRGASSSELTQIVSTVPKILGKRGHKSITVYYDFVKDIIEADKSSSYEKLCHSFPQGNKKNKIRNISVLRELGVAQRLLFPLLISDGQPVCGKERFEESLKKVVEMGFDPETTKFVEALRVIYRMSDKTIEEKVNVYKRLGFGVADVWAIFKKWPSFLSYSEKKITHTFETLKSCGLLKHEVLLLLKKHPKCICSSEQKIVNSIETFLGLGFSRDEFAMMVKRYPQCIDYTAETVKKKTEFIVKNMNWPLEALVSIPQVFGYSLEKRTVPRCNVIKTLISKGLMKDGSEAPPMSSVLTSTDQAFLRRYVMKHDKLAPELMAIFTGENGK”, the protein production entry is “failed”.

As for “MYCDHFGFSEHPFALTPNPAFLFLSSRHQEAFAHLLYGIDTRAGFIELSGEVGTGKTTVIRTFLNQLDPETHRTALVFNPTVSPLGLLQGIIREFGLPGTSTEKSELLETLNRFLLDENRAGHTVVLVIDEAQNLSPEVLEQIRLISNLETERDKLIQIVLVGQPELRHLLARQELRQLDQRITVRYHLEPMGLDDTKNYIRHRIRIAAGGREPVIFSAGAVKKIFGFSGGLPRLINAACDRALLLAYTTEAREVSPAMAAAAIADVATEARPPSPSRRFAVAAALILVAALGAGTFAVTRKGGESLPSASPPPTEPAASGEQPLKRTAALAGLAAVPEKDNLSAAVNTILRSWQAPPVASSPSPADLRSLARERGLTVTELSGTLNDLARLDTPALLHITLPQGGKRLVALTSLDKGHIGIDPPIAGHSTLTGGELSTLWSGRASVIWKNFHGIPSRLKPGGRSKAVGQLQELLKGAGYYAGRISGTYDTVTQEAIRSFQTAEGLDADGRTGEKTLLLLYRRAGGFFPPGLTQGKTAARTEAGDRSRGKVAQTRSNGEQSRLEHHHHHH”, the protein production entry is on record as “failed”.

For the sequence “MYDCSHGAGSSQSPAAEPGPTPRRRHTIHRLAHNDPVNDLDFLLTPEGRALLDEVRDTDPVRELAVATRLRRTHPAELVSAALGQARLRQRAVAKFGAEDAGRMFFTPNGVEQSTRASVAAYRAGRFAALGVASVADLCCGIGGDAIALARAGIRVLAVDRDPVTAAAARANADALGLAGLIEVREADVTEVDTEAYDAVFVDPARRGGRGRIFDPEAYSPPLSWAVRAARTASRAAALKVAPGIPHEAVPEDAEAEWISDGGDVKEAVLWFGAGAAPGAVRATLLPGPRTLPGTGLPDPEVRTPGRYLYEPDGAVIRAHLVAEVAAQVGGGLLDATIAYVTADELLPTPYATAYEITDRMPFNVKKLKALLRERGVGTLTVKKRGSAVEPEELRRKVKPQGPNSATVFLTRVAGAPTMLVGHPAR”, the protein production entry is given as “failed”.

With “MYEAGLAEGESAYGHGGYISVPELPAGVAVRNSRRPDIIQESSYLRILAPAGGWLAAATLEKLADCAETYGRGLVHLTSGGTIEIYTGREQMLPLVRELNSGGLDVGSTGDDLRCLTACCGPVRCEHALVDAPALATYLGQRFIDDQQYPGYPQKVKSAVAGCPNDCIRAMMQKDHSFIGVYRDWPMVDGEMLAAWREKGGDLNGLLAACPAGALTLVGDTLEVDKERCWRCMACINYCPAIRPGRERGVAWVAGGKYGHRGPQGPMVGFVLVPFIPVADDDYTAVGDIFGAFLEFWADNAKKKERVGDFIARVGPLKILRELGLEAQPQILLSPKRNVY”, the protein production entry is “failed”.

Take “MYEPGTEQINCNGRLIELPTLEVVRPAPKMPSDANIDWLLHIYFTRREFTRCRRLIERELNRHLNPEYLYFVQGLIDREEGNHIEALRHLQKSAELNPRNIETYKEIGRTLYIMGRFSQALGVFREAEQRSSRQDHEIYHYLGELLYRAATTQSQKDVASQQQDEARTYFELAVQSGRKLESYVRLAELYRKDKQYQKAIEILENCLHLTPENSEVLIEISVLYLKINETQKAHDRLAEVVSIERKCSPKGLLAFGAILQSRNDIDGALSKYSQIANAEPEIAELWNNIGLCFFKKQKFIVAISSLRKSVWLSPLNYNALYNLSLIYIASEQYASAFHTLAAAINLRKDNAECYMLLGLCLRKLDDMENAFVALERASSMATGQQGAGRNPLVVLNFALFCYETGRLALSTEQYNRFMSQAQDLLLPTEYKFQATKLKSLLRISNQGNGILLDSADMGESDLGHNRATELLPDELPLEVNAVVSQN”: the protein production result is on record as “failed”.
